Biological target: vimentin 2.tag (epitope-tagged Xenopus laevis vimentin 2, 57 kD) (X. laevis)
Assay: fractionation of oocytes into soluble and insoluble fractions

stoichiometry N: 4
Substance: vimentin 2.tag (epitope-tagged Xenopus laevis vimentin 2, 57 kD) (natural protein)

Reference: article PMC2289705
